Tests used:
in vitro = in vitro ADME; conditions: rat
Procedure: An aliquot (100 μL) of ^99mTc-BN1/^99mTc-BN2/^99mTc-BN3/^99mTc-BN4/^99mTc-BNS was added to 1 mL of freshly collected rat serum in centrifuge tube. The mixture was then incubated at 37 °C for 1 h; the serum protein was precipitated by adding 1 mL trichloroacetic acid (10%, V/V). The supernatant and precipitate were separated by centrifugation at 3000 rpm for 5 min. Radioactivities of both the phases were measured separately. The above experimental procedure was repeated three times. The percentage of protein binding was determined as: Plasma protein binding % = (precipitate counts (CPM) / [precipitate counts (CPM) + plasma counts (CPM)]) × 100%.

physchem = assay type: physicochemical; conditions: pH 7.4
Procedure: Lipophilicity of the HPLC-purified radiopeptide analogs was determined through octanol/water partition coefficients, determined at pH 7.4 by measuring the distribution of the HPLC purified radiolabeled peptides in 1-octanol and PBS. Then, 50 μL HPLC purified ^99mTc-BN1/^99mTc-BN2/^99mTc-BN3/^99mTc-BN4/^99mTc-BNS with 100 μCi of radiolabeled compound in PBS was added to a to a centrifuge tube containing 1 mL n-octanol and 1 mL PBS (0.025 M, pH 7.4). The tube was vortexed at room temperature for 2 min and they are centrifuged at 5000 rpm for 5 min to ensure complete separation of layers. Further, 100 μL of each phase was transferred into a separate pre-weighed vial and measured in the well γ-counter. The ratio of octanol layer counts to aqueous layer counts was expressed as the distribution coefficient (D, the appropriate descriptor for ionizable compounds) and logD was used for determination of lipophilicity. Counts per unit weight of the sample were calculated, and logD value as calculated as follows:
log10D = log10 [(cpm in octanol – cpm in background) / (cpm in buffer – cpm in background)]

[1] = system: MDA-MB-231 tumor-bearing mice; test: In vivo biodistribution; parameters: species or system mouse; conditions: for Tumor uptake: MDA-MB-231 tumor; for Tumor uptake / Blood uptake / Heart uptake / Intestine uptake / Kidney uptake / Liver uptake / Lung uptake / Muscle uptake / Pancreas uptake / Spleen uptake / Stomach uptake / Urine + urinary bladder uptake: mean ± SD, n = 3
Procedure: All animal experiments were done according to the CSIR-IICB Animal Ethics Committee’s rules and regulation. Forty-eight hours before tumor cell implantation, an immunosuppressive drug (cyclosporine-A) was given intraperitoneal (i.p) at a concentration of 30 mg/kg/day. After that, MDA-MB-231 cells (5 × 10^6) 0.2 mL were implanted subcutaneously into the left flanks of the hind leg of BALB/c mice. Thereafter, the same dose of cyclosporine was given i.p. daily up to 2 weeks. Two weeks after inoculation of the tumor cells, when tumors reached ~ 0.5 cm in mean diameter, the tumor-bearing mice were used for biodistribution and imaging studies. Animals were monitored daily and their weights were recorded. Control group of mice received only 0.9 wt% saline. After cell implantation, the growth rate of the breast tumor followed a satisfactory pattern of spheroid shape and tumors are palpable within 2 to 4 weeks. MDA-MB-231 cell implanted mice tumor models were used for biodistribution and planar imaging studies of these radiolabeled new bombesin analogs.
In tissue biodistribution studies, tumor-bearing animals were divided into four groups and well hydrated for 1 h by intraperitoneal administration of saline (0.9%, 2 mL). Three animals per groups were used for biodistribution studies. After that, the radiolabeled new bombesin analogs (^99mTc-BN) were injected intravenously in each animal of each group consequently through the tail vein [24–27]. After 5, 30, 60, and 120 min intravenous administrations of radiolabeled analogs, the animals were sacrificed; blood, heart, lung, liver, kidney, stomach, intestine, spleen, pancreas, brain, muscle, and tumor were excised, weighed, and counted for radioactivity. The organ uptake was calculated as a percentage of the injected activity per gram of wet tissue (%IA/g). In order to evaluate whether binding of bombesin analogs to MDA-MB-231 cells in vivo is specific; blocking studies with ^99mTc-labeled bombesin analogs in tumor-bearing mice were carried out. Groups of three animals were injected 0.03 nmol of ^99mTc-labeled BN analogs (2 MBq) with 25 nmol of non-radiolabeled BN peptide. After 60 min and 120 min, mice were sacrificed and the organs were collected. Each organ was weighed and counted in a gamma counter along with activity standard and percentage of injected activity per gram (%IA/g) of tissue was calculated for each type of tissues. Counts were corrected for background radiation and physical decay of the radioactivity. The uptake was expressed in the percentage of injected activity per gram of each organ (%IA/g). Data were analyzed statistically by the t test, with the level of significance set at P < 0.05.

[2] = 60 min p.i., blocked with excess non-radiolabeled BN peptide

## ^99mTc-HYNIC-Asp-[Phe^13Nle^14]BN(7-14)NH2 [99mTc-BN1]
In vitro
  Percentage of plasma protein binding: 45.00%
physchem
  logD: − 1.85 ± 0.05
[1]; 5 min p.i., i.v.
  Tumor uptake: 0.78 ± 0.03 %IA/g
  Blood uptake: 1.32 ± 0.07 %IA/g
  Heart uptake: 1.02 ± 0.05 %IA/g
  Intestine uptake: 1.06 ± 0.05 %IA/g
  Kidney uptake: 2.12 ± 0.10 %IA/g
  Liver uptake: 0.85 ± 0.04 %IA/g
  Lung uptake: 0.95 ± 0.04 %IA/g
  Muscle uptake: 0.22 ± 0.02 %IA/g
  Pancreas uptake: 2.58 ± 0.12 %IA/g
  Spleen uptake: 0.94 ± 0.04 %IA/g
  Stomach uptake: 0.42 ± 0.02 %IA/g
  Urine + urinary bladder uptake: 0.81 ± 0.04 %IA/g
[1]; 30 min p.i., i.v.
  Tumor uptake: 2.51 ± 0.12 %IA/g
  Blood uptake: 0.89 ± 0.04 %IA/g
  Heart uptake: 0.81 ± 0.04 %IA/g
  Intestine uptake: 1.36 ± 0.06 %IA/g
  Kidney uptake: 4.12 ± 0.20 %IA/g
  Liver uptake: 0.69 ± 0.03 %IA/g
  Lung uptake: 0.77 ± 0.03 %IA/g
  Muscle uptake: 0.27 ± 0.01 %IA/g
  Pancreas uptake: 1.79 ± 0.08 %IA/g
  Spleen uptake: 0.51 ± 0.02 %IA/g
  Stomach uptake: 0.85 ± 0.04 %IA/g
  Urine + urinary bladder uptake: 2.85 ± 0.01 %IA/g
[1]; [2]
  Tumor uptake: 1.20 ± 0.03 %IA/g
  Blood uptake: 0.34 ± 0.01 %IA/g
  Heart uptake: 0.44 ± 0.01 %IA/g
  Intestine uptake: 1.44 ± 0.05 %IA/g
  Kidney uptake: 3.10 ± 0.02 %IA/g
  Liver uptake: 0.55 ± 0.03 %IA/g
  Lung uptake: 0.57 ± 0.02 %IA/g
  Muscle uptake: 0.16 ± 0.02 %IA/g
  Pancreas uptake: 0.91 ± 0.04 %IA/g
  Spleen uptake: 0.35 ± 0.01 %IA/g
  Stomach uptake: 0.40 ± 0.02 %IA/g
  Urine + urinary bladder uptake: 3.56 ± 0.02 %IA/g
[1]; 60 min p.i., i.v.
  Tumor uptake: 1.85 ± 0.09 %IA/g
  Blood uptake: 0.32 ± 0.01 %IA/g
  Heart uptake: 0.47 ± 0.02 %IA/g
  Intestine uptake: 1.70 ± 0.08 %IA/g
  Kidney uptake: 3.15 ± 0.15 %IA/g
  Liver uptake: 0.56 ± 0.02 %IA/g
  Lung uptake: 0.56 ± 0.02 %IA/g
  Muscle uptake: 0.14 ± 0.01 %IA/g
  Pancreas uptake: 1.11 ± 0.05 %IA/g
  Spleen uptake: 0.32 ± 0.01 %IA/g
  Stomach uptake: 0.56 ± 0.02 %IA/g
  Urine + urinary bladder uptake: 3.50 ± 0.15 %IA/g
[1]; 120 min p.i., i.v.
  Tumor uptake: 1.56 ± 0.07 %IA/g
  Blood uptake: 0.05 ± 0.01 %IA/g
  Heart uptake: 0.17 ± 0.01 %IA/g
  Intestine uptake: 1.10 ± 0.05 %IA/g
  Kidney uptake: 1.56 ± 0.07 %IA/g
  Liver uptake: 0.32 ± 0.01 %IA/g
  Lung uptake: 0.32 ± 0.01 %IA/g
  Muscle uptake: 0.09 ± 0.02 %IA/g
  Pancreas uptake: 0.69 ± 0.03 %IA/g
  Spleen uptake: 0.26 ± 0.03 %IA/g
  Stomach uptake: 0.35 ± 0.01 %IA/g
  Urine + urinary bladder uptake: 4.79 ± 0.12 %IA/g

## ^99mTc-HYNIC-Asp-Asn-[Lys^11CHAla^13Nle^14]-BN(7-14)NH2 [99mTc-BN3]
In vitro
  Percentage of plasma protein binding: 26.00%
physchem
  logD: − 2.21 ± 0.13
[1]; 5 min p.i.
  tumor/blood ratio: 2.37
  tumor/kidney ratio: 0.64
  tumor/muscle ratio: 2.56
[1]; 5 min p.i., i.v.
  Tumor uptake: 1.28 ± 0.01 %IA/g
  Blood uptake: 0.54 ± 0.01 %IA/g
  Heart uptake: 0.91 ± 0.03 %IA/g
  Intestine uptake: 1.21 ± 0.06 %IA/g
  Kidney uptake: 1.97 ± 0.11 %IA/g
  Liver uptake: 0.44 ± 0.03 %IA/g
  Lung uptake: 0.87 ± 0.14 %IA/g
  Muscle uptake: 0.50 ± 0.01 %IA/g
  Pancreas uptake: 2.78 ± 0.11 %IA/g
  Spleen uptake: 0.54 ± 0.04 %IA/g
  Stomach uptake: 0.52 ± 0.02 %IA/g
  Urine + urinary bladder uptake: 0.61 ± 0.04 %IA/g
[1]; 30 min p.i.
  tumor/blood ratio: 3.47
  tumor/kidney ratio: 0.76
  tumor/muscle ratio: 9.83
[1]; 30 min p.i., i.v.
  Tumor uptake: 2.95 ± 0.01 %IA/g
  Blood uptake: 0.85 ± 0.01 %IA/g
  Heart uptake: 0.77 ± 0.02 %IA/g
  Intestine uptake: 1.46 ± 0.05 %IA/g
  Kidney uptake: 3.88 ± 0.21 %IA/g
  Liver uptake: 0.23 ± 0.13 %IA/g
  Lung uptake: 0.62 ± 0.03 %IA/g
  Muscle uptake: 0.30 ± 0.02 %IA/g
  Pancreas uptake: 3.59 ± 0.03 %IA/g
  Spleen uptake: 0.46 ± 0.01 %IA/g
  Stomach uptake: 0.74 ± 0.04 %IA/g
  Urine + urinary bladder uptake: 2.80 ± 0.01 %IA/g
[1]; 60 min p.i.
  tumor/blood ratio: 5.71
  tumor/kidney ratio: 0.85
  tumor/muscle ratio: 10.38
[1]; [2]
  Tumor uptake: 0.54 ± 0.20 %IA/g
  Blood uptake: 0.30 ± 0.01 %IA/g
  Heart uptake: 0.29 ± 0.11 %IA/g
  Intestine uptake: 1.36 ± 0.23 %IA/g
  Kidney uptake: 3.18 ± 0.20 %IA/g
  Liver uptake: 0.20 ± 0.03 %IA/g
  Lung uptake: 0.52 ± 0.02 %IA/g
  Muscle uptake: 0.16 ± 0.21 %IA/g
  Pancreas uptake: 0.92 ± 0.02 %IA/g
  Spleen uptake: 0.33 ± 0.03 %IA/g
  Stomach uptake: 0.37 ± 0.10 %IA/g
  Urine + urinary bladder uptake: 3.52 ± 0.07 %IA/g
[1]; 60 min p.i., i.v.
  Tumor uptake: 2.70 ± 0.02 %IA/g
  Blood uptake: 0.47 ± 0.04 %IA/g
  Heart uptake: 0.35 ± 0.02 %IA/g
  Intestine uptake: 1.85 ± 0.21 %IA/g
  Kidney uptake: 3.17 ± 0.17 %IA/g
  Liver uptake: 0.18 ± 0.12 %IA/g
  Lung uptake: 0.50 ± 0.02 %IA/g
  Muscle uptake: 0.26 ± 0.03 %IA/g
  Pancreas uptake: 2.11 ± 0.06 %IA/g
  Spleen uptake: 0.30 ± 0.01 %IA/g
  Stomach uptake: 0.66 ± 0.02 %IA/g
  Urine + urinary bladder uptake: 3.75 ± 0.11 %IA/g
[1]; 120 min p.i.
  tumor/blood ratio: 7.04
  tumor/kidney ratio: 1.20
  tumor/muscle ratio: 8.89
[1]; 120 min p.i., i.v.
  Tumor uptake: 1.69 ± 0.03 %IA/g
  Blood uptake: 0.24 ± 0.01 %IA/g
  Heart uptake: 0.15 ± 0.04 %IA/g
  Intestine uptake: 0.70 ± 0.05 %IA/g
  Kidney uptake: 1.40 ± 0.13 %IA/g
  Liver uptake: 0.11 ± 0.03 %IA/g
  Lung uptake: 0.35 ± 0.11 %IA/g
  Muscle uptake: 0.19 ± 0.02 %IA/g
  Pancreas uptake: 1.22 ± 0.04 %IA/g
  Spleen uptake: 0.12 ± 0.02 %IA/g
  Stomach uptake: 0.25 ± 0.01 %IA/g
  Urine + urinary bladder uptake: 3.91 ± 0.22 %IA/g

From paper PMC6423188, “HYNIC and DOMA conjugated radiolabeled bombesin analogs as receptor-targeted probes for scintigraphic detection of breast tumor” (EJNMMI Research, 2019)
